Measured values taken from US20260167699A1 (Chugai, published 2026).

B1: GpH7-A5/GpH7-B3 variant K326_05P/GpL16-k0 (antibody, human IgG1, kappa)
heavy 1: not shown
heavy 2: not shown
light: DIVMTQSPLSLPVTPGEPASISCQASESLVHSNRNTYLHWYLQKPGQSPQLLIYKVSNRFSGVPDRFSGSGSGTDFTLKISRVEAEDVGVYYCSQNTHVPPTFGQGTKVEIERTVAAPSVFIFPPSDEQLKSGTASVVCLLNNFYPREAKVQWKVDNALQSGNSQESVTEQDSKDSTYSLSSTLTLSKADYEKHKVYACEVTHQGLSSPVTKSFNRGEC
notes: copies: 1 + 1 + 2
B2: GpH7-A5/GpH7-B3 variant K326_10E/GpL16-k0 (antibody, human IgG1, kappa)
heavy 1: not shown
heavy 2: not shown
light: B1 light
notes: copies: 1 + 1 + 2
B3: GpH7-A5/GpH7-B3 variant L234_06M/GpL16-k0 (antibody, human IgG1, kappa)
heavy 1: not shown
heavy 2: not shown
light: B1 light
notes: copies: 1 + 1 + 2
B4: GpH7-A5/GpH7-B3 variant K326_16H/GpL16-k0 (antibody, human IgG1, kappa)
heavy 1: not shown
heavy 2: not shown
light: B1 light
notes: copies: 1 + 1 + 2
B5: GpH7-A5/GpH7-B3 variant K326_20W/GpL16-k0 (antibody, human IgG1, kappa)
heavy 1: not shown
heavy 2: not shown
light: B1 light
notes: copies: 1 + 1 + 2
B6: GpH7-A5/GpH7-B3 variant K326_02A/GpL16-k0 (antibody, human IgG1, kappa)
heavy 1: not shown
heavy 2: not shown
light: B1 light
notes: copies: 1 + 1 + 2
B7: GpH7-A5/GpH7-B3 variant L234_03V/GpL16-k0 (antibody, human IgG1, kappa)
heavy 1: not shown
heavy 2: not shown
light: B1 light
notes: copies: 1 + 1 + 2
B8: GpH7-A5/GpH7-B3 variant K334_09D/GpL16-k0 (antibody, human IgG1, kappa)
heavy 1: not shown
heavy 2: not shown
light: B1 light
notes: copies: 1 + 1 + 2
B9: GpH7-A5/GpH7-B3 variant L234_04F/GpL16-k0 (antibody, human IgG1, kappa)
heavy 1: not shown
heavy 2: not shown
light: B1 light
notes: copies: 1 + 1 + 2
B10: GpH7-A5/GpH7-B3 variant L234_19Q/GpL16-k0 (antibody, human IgG1, kappa)
heavy 1: not shown
heavy 2: not shown
light: B1 light
notes: copies: 1 + 1 + 2
B11: GpH7-A5/GpH7-B3 variant K334_03V/GpL16-k0 (antibody, human IgG1, kappa)
heavy 1: not shown
heavy 2: not shown
light: B1 light
notes: copies: 1 + 1 + 2
B12: GpH7-A5/GpH7-B3 variant L234_09D/GpL16-k0 (antibody, human IgG1, kappa)
heavy 1: not shown
heavy 2: not shown
light: B1 light
notes: copies: 1 + 1 + 2
B13: GpH7-A5/GpH7-B3 variant L234_14T/GpL16-k0 (antibody, human IgG1, kappa)
heavy 1: not shown
heavy 2: not shown
light: B1 light
notes: copies: 1 + 1 + 2
B14: GpH7-A5/GpH7-B3 variant K326_15Y/GpL16-k0 (antibody, human IgG1, kappa)
heavy 1: not shown
heavy 2: not shown
light: B1 light
notes: copies: 1 + 1 + 2
B15: GpH7-A5/GpH7-B3 variant K326_13S/GpL16-k0 (antibody, human IgG1, kappa)
heavy 1: not shown
heavy 2: not shown
light: B1 light
notes: copies: 1 + 1 + 2
B16: GpH7-A5/GpH7-B3 variant K326_09D/GpL16-k0 (antibody, human IgG1, kappa)
heavy 1: not shown
heavy 2: not shown
light: B1 light
notes: copies: 1 + 1 + 2
B17: GpH7-A5/GpH7-B3 variant K326_07I/GpL16-k0 (antibody, human IgG1, kappa)
heavy 1: not shown
heavy 2: not shown
light: B1 light
notes: copies: 1 + 1 + 2
B18: GpH7-A5/GpH7-B3 variant K326_06M/GpL16-k0 (antibody, human IgG1, kappa)
heavy 1: not shown
heavy 2: not shown
light: B1 light
notes: copies: 1 + 1 + 2
B19: GpH7-A5/GpH7-B3 variant K326_19Q/GpL16-k0 (antibody, human IgG1, kappa)
heavy 1: not shown
heavy 2: not shown
light: B1 light
notes: copies: 1 + 1 + 2
B20: GpH7-A5/GpH7-B3 variant L234_13S/GpL16-k0 (antibody, human IgG1, kappa)
heavy 1: not shown
heavy 2: not shown
light: B1 light
notes: copies: 1 + 1 + 2
B21: GpH7-A5/GpH7-B3 variant L235_01G/GpL16-k0 (antibody, human IgG1, kappa)
heavy 1: not shown
heavy 2: not shown
light: B1 light
notes: copies: 1 + 1 + 2
B22: GpH7-A5/GpH7-B3 variant K326_18N/GpL16-k0 (antibody, human IgG1, kappa)
heavy 1: not shown
heavy 2: not shown
light: B1 light
notes: copies: 1 + 1 + 2
B23: GpH7-A5/GpH7-B3 variant L234_07I/GpL16-k0 (antibody, human IgG1, kappa)
heavy 1: not shown
heavy 2: not shown
light: B1 light
notes: copies: 1 + 1 + 2
B24: GpH7-A5/GpH7-B3 variant K326_14T/GpL16-k0 (antibody, human IgG1, kappa)
heavy 1: not shown
heavy 2: not shown
light: B1 light
notes: copies: 1 + 1 + 2
B25: GpH7-A5/GpH7-B3 variant I336_19Q/GpL16-k0 (antibody, human IgG1, kappa)
heavy 1: not shown
heavy 2: not shown
light: B1 light
notes: copies: 1 + 1 + 2
B26: GpH7-A5/GpH7-B3 variant L235_05P/GpL16-k0 (antibody, human IgG1, kappa)
heavy 1: not shown
heavy 2: not shown
light: B1 light
notes: copies: 1 + 1 + 2
B27: GpH7-A5/GpH7-B3 variant L234_20W/GpL16-k0 (antibody, human IgG1, kappa)
heavy 1: not shown
heavy 2: not shown
light: B1 light
notes: copies: 1 + 1 + 2
B28: GpH7-A5/GpH7-B3 variant K334_10E/GpL16-k0 (antibody, human IgG1, kappa)
heavy 1: not shown
heavy 2: not shown
light: B1 light
notes: copies: 1 + 1 + 2
B29: GpH7-A5/GpH7-B3 variant K334_04F/GpL16-k0 (antibody, human IgG1, kappa)
heavy 1: not shown
heavy 2: not shown
light: B1 light
notes: copies: 1 + 1 + 2
B30: GpH7-A5/GpH7-B3 variant K334_01G/GpL16-k0 (antibody, human IgG1, kappa)
heavy 1: not shown
heavy 2: not shown
light: B1 light
notes: copies: 1 + 1 + 2
B31: GpH7-A5/GpH7-B3 variant L234_02A/GpL16-k0 (antibody, human IgG1, kappa)
heavy 1: not shown
heavy 2: not shown
light: B1 light
notes: copies: 1 + 1 + 2

The binders below were run against T1, FcγRIIIa (human, UniProt P08637 17-208) (assay: SPR (Biacore);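 also: antibody variants captured on an SPR sensor chip, with FcγRIIIa passed over as analyte in HBS-EP+ buffer at 25 °C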).
T1 construct: extracellular domain; also called 3a; FcγRIIIa extracellular domain
T1 sequence (P08637 other isoform, or with tags, fused parts or gaps): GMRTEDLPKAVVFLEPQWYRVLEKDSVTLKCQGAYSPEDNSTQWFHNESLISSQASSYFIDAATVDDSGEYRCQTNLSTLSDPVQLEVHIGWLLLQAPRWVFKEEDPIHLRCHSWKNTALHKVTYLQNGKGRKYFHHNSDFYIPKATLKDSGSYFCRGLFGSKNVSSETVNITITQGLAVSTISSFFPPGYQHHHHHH
Protocol: The antibody of interest was analyzed for its interaction with FcγR using a BiaCore™ T100, BiaCore™ A100, or BiaCore™ 4000 surface plasmon resonance system (GE Healthcare Japan Corp.). The running buffer used was HBS-EP+ (GE Healthcare Japan Corp.). The assay temperature was set to 25° C. The sensor chips used were: a chip prepared by immobilizing antigenic peptides onto Series S Sensor Chip CM5 (GE Healthcare Japan Corp.) by the amine coupling method; a chip prepared by immobilizing antigenic peptides biotinylated in advance onto Series S Sensor Chip SA (certified) (GE Healthcare Japan Corp.) through their interaction; a chip prepared by immobilizing protein L (ACTIGEN, BioVision, Inc.) onto Series S Sensor Chip CM5 (GE Healthcare Japan Corp.); and a chip prepared by immobilizing protein A/G (Thermo Fisher Scientific K.K.) onto Series S Sensor Chip CM5 (GE Healthcare Japan Corp.). The antibody of interest was captured onto any of these chips and allowed to interact with FcγR diluted with a running buffer. The antibody captured on the chip was washed off through the reaction of 10 mM glycine-HCl (pH 1.5) to regenerate the chip, which was repetitively used.

Row | Binder | He/Con 3a
1 | B1 | 117 % of GpH7-A5/GpH7-B3/GpL16-k0
2 | B2 | 138 % of GpH7-A5/GpH7-B3/GpL16-k0
3 | B3 | 82.9 % of GpH7-A5/GpH7-B3/GpL16-k0
4 | B4 | 106 % of GpH7-A5/GpH7-B3/GpL16-k0
5 | B5 | 93.7 % of GpH7-A5/GpH7-B3/GpL16-k0
6 | B6 | 130 % of GpH7-A5/GpH7-B3/GpL16-k0
7 | B7 | 88.3 % of GpH7-A5/GpH7-B3/GpL16-k0
8 | B8 | 164 % of GpH7-A5/GpH7-B3/GpL16-k0
9 | B9 | 114 % of GpH7-A5/GpH7-B3/GpL16-k0
10 | B10 | 77.1 % of GpH7-A5/GpH7-B3/GpL16-k0
11 | B11 | 154 % of GpH7-A5/GpH7-B3/GpL16-k0
12 | B12 | 113 % of GpH7-A5/GpH7-B3/GpL16-k0
13 | B13 | 69.8 % of GpH7-A5/GpH7-B3/GpL16-k0
14 | B14 | 124 % of GpH7-A5/GpH7-B3/GpL16-k0
15 | B15 | 118 % of GpH7-A5/GpH7-B3/GpL16-k0
16 | B16 | 148 % of GpH7-A5/GpH7-B3/GpL16-k0

Row | Binder | He/Con 3a
17 | B17 | 153 % of GpH7-A5/GpH7-B3/GpL16-k0
18 | B18 | 127 % of GpH7-A5/GpH7-B3/GpL16-k0
19 | B19 | 117 % of GpH7-A5/GpH7-B3/GpL16-k0
20 | B20 | 68.1 % of GpH7-A5/GpH7-B3/GpL16-k0
21 | B21 | 56.7 % of GpH7-A5/GpH7-B3/GpL16-k0
22 | B22 | 134 % of GpH7-A5/GpH7-B3/GpL16-k0
23 | B23 | 99.5 % of GpH7-A5/GpH7-B3/GpL16-k0
24 | B24 | 140 % of GpH7-A5/GpH7-B3/GpL16-k0
25 | B25 | 88.4 % of GpH7-A5/GpH7-B3/GpL16-k0
26 | B26 | 68.6 % of GpH7-A5/GpH7-B3/GpL16-k0
27 | B27 | 103 % of GpH7-A5/GpH7-B3/GpL16-k0
28 | B28 | 186 % of GpH7-A5/GpH7-B3/GpL16-k0
29 | B29 | 152 % of GpH7-A5/GpH7-B3/GpL16-k0
30 | B30 | 125 % of GpH7-A5/GpH7-B3/GpL16-k0
31 | B31 | 69.7 % of GpH7-A5/GpH7-B3/GpL16-k0
